Laboratory results: patent publication US20210063414A1, “METHODS FOR PREVENTING AND/OR TREATING BONE LOSS CONDITIONS BY MODULATING IRISIN” (Dana-Farber Cancer Institute, Inc., priority 2018, published 2021)

Target: T1, MLO-Y4 cell surface proteins (Mus musculus, UniProt Q3U2P1)
T1 construct: endogenous in cells; host or cells: MLO-Y4
T1 sequence (Q3U2P1 1-1090): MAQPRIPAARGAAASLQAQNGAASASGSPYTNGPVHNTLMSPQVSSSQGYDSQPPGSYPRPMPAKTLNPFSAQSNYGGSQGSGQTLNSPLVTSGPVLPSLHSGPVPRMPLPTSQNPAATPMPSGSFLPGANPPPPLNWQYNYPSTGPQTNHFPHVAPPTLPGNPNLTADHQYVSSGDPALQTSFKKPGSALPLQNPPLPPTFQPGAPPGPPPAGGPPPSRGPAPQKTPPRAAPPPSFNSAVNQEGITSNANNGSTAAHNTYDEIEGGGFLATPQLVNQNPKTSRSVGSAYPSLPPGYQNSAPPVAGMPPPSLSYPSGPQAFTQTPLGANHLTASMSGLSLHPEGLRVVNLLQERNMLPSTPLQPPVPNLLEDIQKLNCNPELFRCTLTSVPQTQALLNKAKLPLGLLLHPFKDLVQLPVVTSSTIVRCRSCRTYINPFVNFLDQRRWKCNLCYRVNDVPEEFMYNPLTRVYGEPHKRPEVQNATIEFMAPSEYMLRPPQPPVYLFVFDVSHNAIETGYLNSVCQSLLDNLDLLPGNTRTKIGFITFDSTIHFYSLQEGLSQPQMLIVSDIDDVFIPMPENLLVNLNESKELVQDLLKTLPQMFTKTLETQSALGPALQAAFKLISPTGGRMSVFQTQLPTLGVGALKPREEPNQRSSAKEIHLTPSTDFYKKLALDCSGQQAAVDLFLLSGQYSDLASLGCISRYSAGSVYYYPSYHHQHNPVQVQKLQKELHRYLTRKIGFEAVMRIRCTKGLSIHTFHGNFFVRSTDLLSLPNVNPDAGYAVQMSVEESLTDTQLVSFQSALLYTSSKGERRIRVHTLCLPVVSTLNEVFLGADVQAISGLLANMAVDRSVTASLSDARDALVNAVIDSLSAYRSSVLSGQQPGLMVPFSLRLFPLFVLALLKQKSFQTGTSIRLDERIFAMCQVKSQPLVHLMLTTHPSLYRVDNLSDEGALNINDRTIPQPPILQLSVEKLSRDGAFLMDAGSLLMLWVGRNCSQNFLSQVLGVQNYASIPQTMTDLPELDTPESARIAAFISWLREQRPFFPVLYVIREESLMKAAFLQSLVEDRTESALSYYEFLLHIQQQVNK
Experiment: Crosslinking/co-immunoprecipitation/mass spectrometry (TMT quantitative proteomics) to identify irisin receptors
Format: binding
Conditions: co-precipitated protein Sec24a (SC24A_MOUSE)
Method in brief: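 Relative protein abundance came from 6-plex TMT MS3 quantitation on an Orbitrap Fusion Lumos, after in-gel trypsin digestion of Coomassie-stained SDS-PAGE lanes. Input was a Ni-NTA pulldown (250 mM imidazole elution) of lysates from murine MLO-Y4 cells. These cells were treated on ice with His-tagged irisin or adipsin (10 nM, 20 min) in serum-free medium, then crosslinked with 1.5 mM DTSSP for 30 min.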

Question: adipsin was tested. Which TMT signal-to-noise ratio did it give?
Answer: 118.999
